According to PMC6805999, “Molecular Mechanism of SR Protein Kinase 1 Inhibition by the Herpes Virus Protein ICP27” (mBio, 2019):
Several values for one entry are separate records, joined by “and”; a condition that tells them apart may be missing. Equal entries are not always repeated.

B1: WT ICP27: full-length wild-type HSV-1 protein ICP27 expressed from plasmid (protein)
chain: MATDIDMLIDLGLDLSDSDLDEDPPEPAESRRDDLESDSSGECSSSDEDMEDPHGEDGPEPILDAARPAVRPSRPEDPGVPSTQTPRPTERQGPNDPQPAPHSVWSRLGARRPSCSPEQHGGKVARLQPPPTKAQPARGGRRGRRRGRGRGGPGAADGLSDPRRRAPRTNRNPGGPRPGAGWTDGPGAPHGEAWRGSEQPDPPGGQRTRGVRQAPPPLMTLAIAPPPADPRAPAPERKAPAADTIDATTRLVLRSISERAAVDRISESFGRSAQVMHDPFGGQPFPAANSPWAPVLAGQGGPFDAETRRVSWETLVAHGPSLYRTFAGNPRAASTAKAMRDCVLRQENFIEALASADETLAWCKMCIHHNLPLRPQDPIIGTTAAVLDNLATRLRPFLQCYLKARGLCGLDELCSRRRLADIKDIASFVFVILARLANRVERGVAEIDYATLGVGVGEKMHFYLPGACMAGLIEILDTHRQECSSRVCELTASHIVAPPYVHGKYFYCNSLF

Columns and labels:
[1] = target: SRPK1; settings: determined using in vitro phosphorylation assays; read-out: dissociation constant (Kd) of SRSF1 RS domain binding to SRPK1; cited from earlier work
[2] = target: T1, endogenous SRPK1 (Homo sapiens, UniProt Q96SB4); assay: Coimmunoprecipitation of endogenous SRPK1 with ICP27 (anti-ICP27 IP, Western blot anti-SRPK1); format: cell-based; settings: HeLa cells transfected with ICP27 plasmid, infected with 27-LacZ for 8 h
T1 construct: endogenous in cells; host or cells: HeLa cells
Text: (§1) ICP27 mutants were constructed to target sites within the RGG box that contact SRPK1 in the crystal structure. Arginines at positions 142, 144, 146, and 148 were changed to glycine (G) as single (R142G, R146G, or R148G), double (R142G R146G), and quadruple (R142G R144G R146G R148G) substitutions. The ICP27 mutant plasmids were cotransfected with a plasmid expressing green fluorescent protein (GFP)-SRPK1 and subsequently infected with ICP27 null mutant virus 27-LacZ to recapitulate the conditions of infection. At 8 h after infection, lysates were immunoprecipitated with anti-GFP antibody, and samples were analyzed by Western blotting and probed with antibody to ICP27 (Fig. 5A). […] ICP27 interaction with endogenous SRPK1 was also analyzed. Cells were transfected with WT and ICP27 mutant plasmids and infected with 27-LacZ as described above. Immunoprecipitation was performed with anti-ICP27 antibody and the blots were probed with antibody to SRPK1 (Fig. 5B). SRPK1 was only coimmunoprecipitated with WT ICP27 and was not detected with any of the mutants.
(§2) HeLa cells cotransfected with GFP-SRPK1 and WT ICP27 or RGG box mutants were infected for 8 h with 27-LacZ. Immunoprecipitation was performed using anti-GFP antibody. Western blots were probed with anti-GFP or anti-ICP27 antibody and anti-β-actin as a loading control. […] GFP fluorescence was visualized directly. […]

[3] = target: T2, GFP-SRPK1 (Homo sapiens, UniProt Q96SB4); assay: Coimmunoprecipitation of ICP27 with GFP-SRPK1 (anti-GFP IP, Western blot anti-ICP27); format: cell-based; settings: HeLa cells cotransfected with GFP-SRPK1 and ICP27 plasmid, infected with 27-LacZ for 8 h
T2 construct: expressed in transfected cells; host or cells: HeLa cells, infected with HSV-1 27-LacZ
Text: as §1, §2

[4] = test system: GFP-SRPK1; assay: Immunofluorescence: cellular localization of GFP-SRPK1; format: cell-based, rabbit skin fibroblasts (RSF); settings: RSF cells cotransfected with GFP-SRPK1 and ICP27 plasmid, infected with 27-LacZ, fixed 6 h later; representative of ∼80% of cells
Method: HeLa cells cotransfected with GFP-SRPK1 and WT ICP27 or RGG box mutants were infected for 8 h with 27-LacZ. Immunoprecipitation was performed using anti-GFP antibody. Western blots were probed with anti-GFP or anti-ICP27 antibody and anti-β-actin as a loading control. (B) HeLa cells transfected with WT and ICP27 RGG box mutants were infected with 27-LacZ for 8 h. Immunoprecipitation was performed with anti-ICP27 antibody. Western blots were probed with anti-SRPK1 or anti-ICP27 antibody as indicated and anti-β-actin as a loading control. (C) RSF cells were transfected with GFP-SRPK1 and 16 h later were mock infected, infected with WT HSV-1 or 27-LacZ, or were cotransfected with GFP-SRPK1 and WT ICP27 or ICP27 RGG box mutants and infected 16 later with 27-LacZ. Cells were fixed 6 h later and immunofluorescent staining was performed with anti-ICP27. ICP4 antibody was used to stain the 27-LacZ sample to mark the nucleus. GFP fluorescence was visualized directly. The panels shown are representative of ∼80% of cells visualized. (D) HeLa cells were transfected with GFP-SRPK1 and WT ICP27 or RGG box mutants and were infected with 27-LacZ 16 h after transfection for 8 h. […]
In immunofluorescence experiments, rabbit skin fibroblasts (RSF) were transfected and/or infected as indicated in the legend to Fig. 5. […] GFP fluorescence was viewed directly. […]

[5] = test system: SRPK1 phosphorylation of SR proteins; assay: In vivo SR protein phosphorylation analysis (Western blot, antiphosphoepitope SR antibody); format: cell-based; settings: HeLa cells cotransfected with GFP-SRPK1 and ICP27 plasmid, infected with 27-LacZ for 8 h
Method: HeLa cells cotransfected with GFP-SRPK1 and WT ICP27 or RGG box mutants were infected for 8 h with 27-LacZ. Immunoprecipitation was performed using anti-GFP antibody. Western blots were probed with anti-GFP or anti-ICP27 antibody and anti-β-actin as a loading control. (B) HeLa cells transfected with WT and ICP27 RGG box mutants were infected with 27-LacZ for 8 h. Immunoprecipitation was performed with anti-ICP27 antibody. Western blots were probed with anti-SRPK1 or anti-ICP27 antibody as indicated and anti-β-actin as a loading control. (C) RSF cells were transfected with GFP-SRPK1 and 16 h later were mock infected, infected with WT HSV-1 or 27-LacZ, or were cotransfected with GFP-SRPK1 and WT ICP27 or ICP27 RGG box mutants and infected 16 later with 27-LacZ. Cells were fixed 6 h later and immunofluorescent staining was performed with anti-ICP27. ICP4 antibody was used to stain the 27-LacZ sample to mark the nucleus. GFP fluorescence was visualized directly. The panels shown are representative of ∼80% of cells visualized. (D) HeLa cells were transfected with GFP-SRPK1 and WT ICP27 or RGG box mutants and were infected with 27-LacZ 16 h after transfection for 8 h. Portions of cell lysates were fractionated by SDS-PAGE, and Western blots were probed with antiphosphoepitope SR antibody, anti-SF2 (SRSF1), anti-ICP27 antibody, and anti-lamin B1 antibody as a loading control. […]

T1 sequence (Q96SB4 whole entry): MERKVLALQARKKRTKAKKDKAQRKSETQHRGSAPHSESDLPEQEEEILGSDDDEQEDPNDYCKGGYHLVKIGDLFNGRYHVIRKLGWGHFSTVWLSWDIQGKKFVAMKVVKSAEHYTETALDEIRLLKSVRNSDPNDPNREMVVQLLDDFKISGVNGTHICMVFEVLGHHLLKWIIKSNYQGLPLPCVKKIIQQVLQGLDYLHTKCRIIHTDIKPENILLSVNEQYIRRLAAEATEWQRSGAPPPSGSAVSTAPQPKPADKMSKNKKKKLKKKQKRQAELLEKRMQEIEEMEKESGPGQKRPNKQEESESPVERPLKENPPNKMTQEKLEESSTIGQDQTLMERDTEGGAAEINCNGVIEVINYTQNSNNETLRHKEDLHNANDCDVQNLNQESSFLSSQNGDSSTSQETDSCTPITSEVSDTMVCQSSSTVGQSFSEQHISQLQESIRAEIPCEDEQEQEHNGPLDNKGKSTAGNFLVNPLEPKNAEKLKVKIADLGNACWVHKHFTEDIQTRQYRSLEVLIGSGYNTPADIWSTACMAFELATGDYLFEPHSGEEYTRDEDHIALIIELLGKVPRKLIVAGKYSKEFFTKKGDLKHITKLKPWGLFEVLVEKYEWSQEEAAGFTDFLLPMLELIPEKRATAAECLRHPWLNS
T2 sequence (Q96SB4 whole entry): as above

Row | Molecule | Kd [1] | coimmunoprecipitation of endogenous SRPK1 with ICP27 [2] | coimmunoprecipitation of ICP27 with GFP-SRPK1 [3] | cellular localization of SRPK1 [4] | level of phosphorylation for SRp40 (SRSF5) reduced [5] | phosphorylation of SRp30 (SRSF1) reduced [5]
1 | SRSF1: prototype SR protein, native cellular substrate of SRPK1 | ~50 nM and 50 nM | – | – | – | – | –
2 | B1 | – | coimmunoprecipitated | efficiently coimmunoprecipitated | prominently nuclear | reduced | reduced
